Assay in all cases: cell-based or functional assay
The target of one experiment is T1, human CD7 (human, UniProt P09564 26-240).
T1 sequence: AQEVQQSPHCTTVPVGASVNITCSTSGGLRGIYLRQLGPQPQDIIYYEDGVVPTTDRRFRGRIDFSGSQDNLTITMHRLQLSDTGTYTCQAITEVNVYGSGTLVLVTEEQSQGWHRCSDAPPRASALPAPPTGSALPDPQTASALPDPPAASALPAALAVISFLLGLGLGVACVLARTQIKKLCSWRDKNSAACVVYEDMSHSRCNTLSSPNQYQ

For another experiment, the target named is T2, non-human primate CD7 (non-human primate).
T2 chain: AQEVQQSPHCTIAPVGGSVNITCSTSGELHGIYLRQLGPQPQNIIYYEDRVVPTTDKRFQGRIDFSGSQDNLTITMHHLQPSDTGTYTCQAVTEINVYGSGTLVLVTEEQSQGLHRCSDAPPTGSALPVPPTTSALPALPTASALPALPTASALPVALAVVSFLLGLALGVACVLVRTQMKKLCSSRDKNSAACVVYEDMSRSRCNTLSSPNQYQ

Another experiment has as its target non-human primate CD8 (non-human primate).
Another experiment addresses human CD8 (human, UniProt P01732 22-235; P10966 22-210).

Sequence of human CD8 (P01732 22-235 Y112C limits assumed, chain 1 of 2): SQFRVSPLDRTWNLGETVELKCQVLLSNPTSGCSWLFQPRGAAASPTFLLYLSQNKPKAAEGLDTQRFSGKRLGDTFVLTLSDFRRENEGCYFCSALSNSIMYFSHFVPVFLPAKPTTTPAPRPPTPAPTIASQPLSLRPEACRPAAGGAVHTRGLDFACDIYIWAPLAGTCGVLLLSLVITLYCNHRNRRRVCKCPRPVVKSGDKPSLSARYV
Sequence of human CD8 (P10966 other isoform, or with tags, fused parts or gaps limits assumed, chain 2 of 2): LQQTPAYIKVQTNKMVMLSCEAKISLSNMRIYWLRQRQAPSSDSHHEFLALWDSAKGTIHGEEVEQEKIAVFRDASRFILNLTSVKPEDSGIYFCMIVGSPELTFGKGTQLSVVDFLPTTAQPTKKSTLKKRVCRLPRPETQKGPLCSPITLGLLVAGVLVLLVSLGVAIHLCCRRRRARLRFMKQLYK

B1: CD7 Binder (SEQ ID NO. 52) (scFv)
scFv: QVQLQQPGAELVKPGASVKLSCKASGYPFTSYWIHWVKQRPGRGLEWLGRIDPNSGDTKYNEKFKNKATLTVDKSSTTAYMQLSSLTSEDSAVYYCARSPYYSNDNSMDYWGQGTSVTVSSGGGGSGGGGSGGGGSGGGGSDILLTQSPAILSVSPGERVSFSCRASQSIGTSIHWYQQRTNDSPRLLIKYASESISGIPSRFSGSGSGTDFTLSINSVESEDIADYYCQQSNSWPTTFGGGTKLEIKR
As for B1, in the experiment with human CD7, the “Human PBMC Transduction (% positive)” value worked out at 21.6 % positive. The “NHP PBMC Transduction (% positive)” value in the experiment with non-human primate CD7 is 5.64 % positive.

B2: CD8 Binder (SEQ ID NO. 69) (scFv)
scFv: NIVLTQSPASLAVSLGQRATISCRASESVDGFGNSFMNWYQQKPGQSPKLLIYLASNLESGVPARFSGSGSRTDFTLTIDPVEADDAATYYCQQNNEDPYTFGGGTKLEIKRGGGGSGGGGSGGGGSGGGGSEVQLQQSGPELVKPGASVKISCKASRYTFTDYNLHWVKLSHEKSLEWIGFIYPYNGGTGYNQKFKNKAKLTVDYSSSTAYMELRSLTSVDAAVYYCARDHRYNEGVSFDYWGQGTTLTVSS
B2: the “NHP PBMC Transduction (% positive)” value with non-human primate CD8 came out at 1.8 % positive. For the same molecule, the “Human PBMC Transduction (% positive)” value with human CD8 was 4.09 % positive.

B3: CD7 Binder (SEQ ID NO. 51) (scFv)
scFv: DILLTQSPAILSVSPGERVSFSCRASQSIGTSIHWYQQRTNDSPRLLIKYASESISGIPSRFSGSGSGTDFTLSINSVESEDIADYYCQQSNSWPTTFGGGTKLEIKRGGGGSGGGGSGGGGSGGGGSQVQLQQPGAELVKPGASVKLSCKASGYPFTSYWIHWVKQRPGRGLEWLGRIDPNSGDTKYNEKFKNKATLTVDKSSTTAYMQLSSLTSEDSAVYYCARSPYYSNDNSMDYWGQGTSVTVSS
With B3, in the experiment with human CD7, the “Human PBMC Transduction (% positive)” value is 19.3 % positive. Further, the “NHP PBMC Transduction (% positive)” value with non-human primate CD7 amounted to 2.61 % positive.

B4: CD8 binder of SEQ ID NO: 70 (printed in Table 1 as 'CD7 Binder (SEQ ID NO. 70)') (scFv)
scFv: EVQLQQSGPELVKPGASVKISCKASRYTFTDYNLHWVKLSHEKSLEWIGFIYPYNGGTGYNQKFKNKAKLTVDYSSSTAYMELRSLTSVDAAVYYCARDHRYNEGVSFDYWGQGTTLTVSSGGGGSGGGGSGGGGSGGGGSNIVLTQSPASLAVSLGQRATISCRASESVDGFGNSFMNWYQQKPGQSPKLLIYLASNLESGVPARFSGSGSRTDFTLTIDPVEADDAATYYCQQNNEDPYTFGGGTKLEIKR
As to B4, the “NHP PBMC Transduction (% positive)” value with non-human primate CD8 was 0.76 % positive. Further, the “Human PBMC Transduction (% positive)” value in the experiment with human CD8 was found to be 3.17 % positive.

The values are drawn from patent US20230295332A1 (INTERIUS BIOTHERAPEUTICS, published 2023).
